The text below walks through data of article PMC5711931.

Experiment [1] deals with F-actin of the thin filaments in ghost muscle fibres (rabbit psoas) (rabbit (endogenous in m. psoas fibres)) (UniProt P68135).
Experiment [2] shares this target. Kind of experiment: incorporation into ghost muscle fibres, washing, SDS-PAGE; ghost fibres with thin filaments reconstructed with Tpm and TN, decorated with S1; absence of nucleotide.
The target is the same in experiment [3]. The experiment can be described thus: incorporation into ghost muscle fibres, washing, SDS-PAGE; ghost fibres with thin filaments reconstructed with Tpm and TN, decorated with S1; presence of ADP (2.5 mM ADP, 3 mM MgCl2).
Experiment [4] has the same target. Kind of experiment: incorporation into ghost muscle fibres, washing, SDS-PAGE; ghost fibres with thin filaments reconstructed with Tpm and TN, decorated with S1; presence of AMPPNP (16 mM AMPPNP, 8 mM MgCl2).
Experiment [5] has the same target. Kind of experiment: incorporation into ghost muscle fibres, washing, SDS-PAGE; ghost fibres with thin filaments reconstructed with Tpm and TN, decorated with S1; presence of ATP (5 mM ATP, 18 mM MgCl2, creatine phosphate and creatine kinase).
The target is the same in experiment [6]. Kind of experiment: fluorescence intensity of the labelled protein in ghost muscle fibres (polarized fluorimeter); AF-Tpm-TN incorporated into the actin filaments of ghost fibres; Isum of the four polarized intensity components, n = 25; excitation 436 ± 5 nm, emission 500-600 nm.
The target is the same in experiment [7]. Kind of experiment: incorporation into ghost muscle fibres, washing, SDS-PAGE with densitometry; single rabbit psoas ghost fibres incubated with Tpm and TN in 50 mM KCl, 3 mM MgCl2, 1 mM DTT, 6.7 mM K, Na phosphate buffer, pH 7.0; unbound Tpm and TN washed out for 15 min; 8-10 fibres per gel lane, 12% SDS-PAGE, ImageJ.

Sequence of myosin subfragment-1 from rabbit fast skeletal muscle myosin (domain or fragment) (Q28641 whole entry, the tested form may be a part): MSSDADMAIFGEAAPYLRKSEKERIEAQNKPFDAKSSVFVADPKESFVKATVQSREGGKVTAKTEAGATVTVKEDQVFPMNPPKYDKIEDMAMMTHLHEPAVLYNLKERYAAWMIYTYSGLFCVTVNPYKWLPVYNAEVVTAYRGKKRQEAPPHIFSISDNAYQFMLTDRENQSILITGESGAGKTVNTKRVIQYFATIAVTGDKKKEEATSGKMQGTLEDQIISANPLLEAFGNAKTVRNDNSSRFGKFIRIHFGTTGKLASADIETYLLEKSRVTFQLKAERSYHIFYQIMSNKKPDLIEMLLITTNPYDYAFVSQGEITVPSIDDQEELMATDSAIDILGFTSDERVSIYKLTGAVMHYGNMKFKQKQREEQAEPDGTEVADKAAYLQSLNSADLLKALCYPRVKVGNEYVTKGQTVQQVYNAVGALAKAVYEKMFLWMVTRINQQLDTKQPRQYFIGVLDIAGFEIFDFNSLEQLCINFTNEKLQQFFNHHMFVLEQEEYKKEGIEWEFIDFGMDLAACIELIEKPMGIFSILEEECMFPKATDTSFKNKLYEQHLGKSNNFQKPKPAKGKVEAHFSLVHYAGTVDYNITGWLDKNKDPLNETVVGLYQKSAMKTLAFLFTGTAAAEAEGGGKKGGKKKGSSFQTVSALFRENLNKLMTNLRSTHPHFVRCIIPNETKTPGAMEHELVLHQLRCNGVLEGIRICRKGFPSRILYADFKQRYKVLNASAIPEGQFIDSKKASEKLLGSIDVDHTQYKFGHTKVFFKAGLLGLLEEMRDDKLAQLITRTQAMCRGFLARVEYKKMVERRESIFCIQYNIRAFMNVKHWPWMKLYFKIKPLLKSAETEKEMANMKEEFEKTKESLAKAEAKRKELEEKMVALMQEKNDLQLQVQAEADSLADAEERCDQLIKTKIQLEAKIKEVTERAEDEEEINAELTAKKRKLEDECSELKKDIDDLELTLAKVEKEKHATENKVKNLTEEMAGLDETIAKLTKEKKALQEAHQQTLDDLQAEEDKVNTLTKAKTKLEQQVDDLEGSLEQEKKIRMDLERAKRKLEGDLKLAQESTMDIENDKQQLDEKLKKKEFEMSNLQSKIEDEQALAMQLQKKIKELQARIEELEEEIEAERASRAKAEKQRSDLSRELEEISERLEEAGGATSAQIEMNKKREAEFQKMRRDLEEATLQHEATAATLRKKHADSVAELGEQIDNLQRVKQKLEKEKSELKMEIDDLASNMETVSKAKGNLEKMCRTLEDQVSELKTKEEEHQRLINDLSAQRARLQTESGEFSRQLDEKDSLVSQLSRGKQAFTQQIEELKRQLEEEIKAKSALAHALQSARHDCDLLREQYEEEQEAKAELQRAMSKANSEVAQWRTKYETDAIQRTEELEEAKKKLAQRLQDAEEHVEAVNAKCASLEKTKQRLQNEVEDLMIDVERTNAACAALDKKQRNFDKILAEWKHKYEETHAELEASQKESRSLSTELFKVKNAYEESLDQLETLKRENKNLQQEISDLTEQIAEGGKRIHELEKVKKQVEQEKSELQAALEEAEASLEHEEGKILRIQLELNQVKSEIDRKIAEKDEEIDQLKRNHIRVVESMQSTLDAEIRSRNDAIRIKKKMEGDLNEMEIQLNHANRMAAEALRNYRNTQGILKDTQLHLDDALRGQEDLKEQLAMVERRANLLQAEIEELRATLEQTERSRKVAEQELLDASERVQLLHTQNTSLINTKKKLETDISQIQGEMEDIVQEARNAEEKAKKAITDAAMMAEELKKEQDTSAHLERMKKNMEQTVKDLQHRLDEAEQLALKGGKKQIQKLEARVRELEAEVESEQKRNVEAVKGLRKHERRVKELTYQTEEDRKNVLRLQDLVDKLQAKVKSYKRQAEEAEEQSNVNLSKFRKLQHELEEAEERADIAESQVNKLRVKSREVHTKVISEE

With “myosin subfragment-1 from rabbit fast skeletal muscle myosin (domain or fragment)”, in experiment [1], the ΦE of the polarized fluorescence of AEDANS-S1 in ghost fibres containing ΔE139Tpm against fibres containing WTTpm; TN, high Ca2+, no nucleotide was found to be 0.4 °. Moreover, the molar ratio of S1 to actin (1:x, value is x) (mol actin per mol S1) in experiment [2] came to 5; in experiment [3], 5; in experiment [4], 8; in experiment [5] it was 14.

Substance “recombinant tropomyosin Tpm2.2 with the E139 deletion labelled with 5-IAF (natural protein)” displayed a fluorescence intensity Isum of the bound labelled Tpm in experiment [6] of 266.

“recombinant tropomyosin Tpm2.2 with the E139 deletion, ββ-homodimer (natural protein)” displayed an amount bound, percent of the amount of WTTpm in experiment [7] of 85%.

For “recombinant wild-type tropomyosin Tpm2.2 labelled with 5-IAF (natural protein)”, the fluorescence intensity Isum of the bound labelled Tpm in experiment [6] came out at 236.
